Reference: PMC11538506

Molecular target: DDX3X WT (MBP) (UniProt O00571 1-662)
Assay: time-resolved fluorescence anisotropy

DDX3X WT (MBP), sequence (O00571 whole entry): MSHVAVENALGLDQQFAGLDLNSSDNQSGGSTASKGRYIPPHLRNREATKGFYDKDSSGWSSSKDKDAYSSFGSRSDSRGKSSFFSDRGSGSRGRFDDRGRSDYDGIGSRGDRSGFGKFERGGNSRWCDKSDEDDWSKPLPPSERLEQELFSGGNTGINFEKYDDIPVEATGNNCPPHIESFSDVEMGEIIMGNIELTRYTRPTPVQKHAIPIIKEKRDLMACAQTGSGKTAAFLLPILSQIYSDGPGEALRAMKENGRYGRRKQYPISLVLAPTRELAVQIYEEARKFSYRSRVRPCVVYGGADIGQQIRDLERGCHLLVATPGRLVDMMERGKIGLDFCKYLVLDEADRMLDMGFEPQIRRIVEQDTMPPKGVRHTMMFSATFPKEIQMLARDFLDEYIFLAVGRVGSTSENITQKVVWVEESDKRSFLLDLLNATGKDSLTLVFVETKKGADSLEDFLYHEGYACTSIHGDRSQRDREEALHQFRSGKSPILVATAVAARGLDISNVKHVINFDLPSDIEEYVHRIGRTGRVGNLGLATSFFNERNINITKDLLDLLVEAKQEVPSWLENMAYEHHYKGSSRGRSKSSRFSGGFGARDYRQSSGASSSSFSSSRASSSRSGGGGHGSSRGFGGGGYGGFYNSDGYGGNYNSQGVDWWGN

B1: dsRNA anisotropy probe (18/42-mer) (dsRNA)
RNA 1: ACCGCUGCCGUCGCUCCG
RNA 2: UUUUUUUUUUUUUUUUUUUUUUUUCGGAGCGACGGCAGCGGU
binding result: binds
